For the test, the target named is wild-type AC fused to GFP (AC-GFP), encoded by plasmid pAC0-Gfp (Bordetella pertussis | not stated) (UniProt P0DKX7). Kind of test: two-hybrid.

“calmodulin (CaM) with a 6-histidine tag at its N-terminus and a tetra-cysteine tag at its C-terminus, encoded by plasmid pTCam (from UniProt P0DP23 1-149) (natural protein)” had a cAMP of more than 250 nmol/mg and a ß gal (Rel. Units) of 106 Rel. Units.

(Values after article PMC13334617.)
